Consider four molecules from article PMC6988089 (Journal of the American Chemical Society, 2019).

The target of experiment [1] is T1, wild-type CBX1 chromodomain (human, UniProt P83916 20-73). Description: fluorescence polarisation. (In general: Polarisation of emitted light reports the rotation of a fluorescent probe.)
In another experiment the target is CBX1 chromodomain F50A (human, UniProt P83916 20-73, F50A). Description: fluorescence polarisation.
Experiment [2] deals with T1, wild-type CBX1 chromodomain.

Like-named read-outs stand apart in the source and are kept apart here.

By Kd is commonly meant the concentration at which binding is half-saturated. A lower Kd goes with a tighter complex.

Chain of CBX1 chromodomain F50A (P83916 20-73 F45A): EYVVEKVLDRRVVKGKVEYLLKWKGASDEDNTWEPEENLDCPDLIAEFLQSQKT
T1 sequence (P83916 20-73): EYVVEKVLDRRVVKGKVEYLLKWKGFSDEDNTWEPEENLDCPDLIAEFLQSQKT

For the molecule ARTKQTARKSTGGKA (allyl-lysine at 9; tetramethylrhodamine (TAMRA) label, position not stated) [TAMRA-labeled allyl-modified H3K9 peptide], the Kd in experiment [1] was determined as 106 ± 20 µM.
Regarding ARTKQTARKSTGGKA (pentenyl-lysine at 9; tetramethylrhodamine (TAMRA) label, position not stated) [TAMRA-labeled pentenyl-modified H3K9 peptide], the affinity with CBX1 chromodomain F50A, expressed as Kd, was 14.1 ± 2.8 µM.
For the molecule ARTKQTARKSTGGKA (dimethyl-lysine at 9) [H3K9me2 peptide], the affinity in experiment [2], expressed as Kd, was 18.3 µM.
As for ARTKQTARKSTGGKA (trimethyl-lysine at 9; tetramethylrhodamine (TAMRA) label, position not stated) [TAMRA-labeled H3K9me3 peptide], the Kd with CBX1 chromodomain F50A stood at 63.5 ± 6.2 µM.
